Measurements: US20080152645A1 (ARMAGEN TECHNOLOGIES, published 2008)

Target: T1, Aβ^1-40 amyloid peptide (human, UniProt P05067 672-711)
T1 construct: domain: Aβ^1-40; Plated on 96-well plates in ELISA and IRMA; also called Aβ^1-40 peptide; Aβ^1-40 aggregates
Experiment: ELISA on plated Aβ^1-40, COS cell medium, detection with biotinylated 9E10 MAb
Source text: FIG. 29. […] The mAβScFv binds to the amyloid peptide, and the 9E10 anti-c-myc MAb binds to the […] epitope fused to the carboxyl terminus of the protein (FIG. 9). The 9E10 MAb is biotinylated, which enables detection with a conjugate of streptavidin and peroxidase. Medium conditioned by COS cells that were transfected with pCD-mAβScFv produced a high signal in the assay, whereas medium from COS cells exposed only to Lipofectamine (LIPO) produced no signal.
The binding of the mAβScFv to the Aβ¹⁻⁴⁰ amyloid peptide was verified with a specific ELISA. The Aβ¹⁻⁴⁰ amyloid peptide was plated in 96-well plates, followed by the addition of the media conditioned by COS cells transfected with the pCD-mAβScFv plasmid and Lipofectamine-2000. The anti-A, ScFv contains a C-terminal 10-amino acid c-myc epitope, which is recognized by the 9E10 MAb (FIG. 29A). The 9E10 MAb is biotinylated, which enables quantitation of the […] binding to Aβ¹⁻⁴⁰ by a peroxidase detection system and A492 readings (FIG. 29A).

binding result: binds
B1: mAβScFv, murine single chain Fv antibody against the Aβ peptide, secreted by COS cells transfected with pCD-mAβScFv (scFv)
scFv: QVQLQQSGAELVKPGATVKLSCKASGYSFNSHYIYWVKQRPGQGLEWIGEINPSNGAMNFNEKFKNKATLTVDKSSSTAYMQLSSLTSEDSAVYYCVRDPTSYWGQGTLVTVSAAKTTPKLEEGEFSEARVDIVMTQTPLSLPVSLGDQASISCRSSQSLVHSYGNTYLHWYLQKPGQSPKLLIYKVSNRFSGVPDRFSGSGSGTDFTLKISRVEAEDLGVYFCSQSTHVPYTFGGGTKLEIKRADAAAAGSEQKLISEEDL
notes: Tested as COS cell conditioned medium; No His tag in this construct; VL has Ile at position 2; also called anti-Aβ ScFv; anti-mAβScFv
